Biological target: Helicobacter pylori HP0231 (DsbK) (Helicobacter pylori)
Experiment: SEC; purified His6-tagged proteins on a calibrated ENrich SEC70 column (Bio-Rad), absorbance at 280 nm; calibrated with Gel Filtration Standard (Bio-Rad)

Helicobacter pylori HP0231 (DsbK) (enzyme)
stoichiometry N: 2

Source: publication PMC4597128
